Substrate: O=P(O)(O)c1ccc(Cc2ccc(P(=O)(O)O)cc2)cc1
Test: Binding affinity towards the binding site of human protein tyrosine phosphatase 1B (PTP1B) enzyme expressed in Escherichia coli cells

B1: Tyrosine-protein phosphatase non-receptor type 1 (Homo sapiens), P18031 (protein)
chain: MEMEKEFEQIDKSGSWAAIYQDIRHEASDFPCRVAKLPKNKNRNRYRDVSPFDHSRIKLHQEDNDYINASLIKMEEAQRSYILTQGPLPNTCGHFWEMVWEQKSRGVVMLNRVMEKGSLKCAQYWPQKEEKEMIFEDTNLKLTLISEDIKSYYTVRQLELENLTTQETREILHFHYTTWPDFGVPESPASFLNFLFKVRESGSLSPEHGPVVVHCSAGIGRSGTFCLADTCLLLMDKRKDPSSVDIKKVLLEMRKFRMGLIQTADQLRFSYLAVIEGAKFIMGDSSVQDQWKELSHEDLEPPPEHIPPPPRPPKRILEPHNGKCREFFPNHQWVKEETQEDKDCPIKEEKGSPLNAAPYGIESMSQDTEVRSRVVGGSLRGAQAASPAKGEPSLPEKDEDHALSYWKPFLVNMCVATVLTAGAYLCYRFLFNSNT
Km: 16 µM

Reference: ChEMBL document CHEMBL1134320, “Structure of protein tyrosine phosphatase 1B in complex with inhibitors bearing two phosphotyrosine mimetics” (J Med Chem, 2001)
